Laboratory results: US20240239894A1 (AstraZeneca / MedImmune, published 2024)

What was measured:
[1] = target: T1, huB7-H3 (human, UniProt Q5ZPR3 29-461, limits assumed); experiment: ELISA, absorbance 450 nm, antigen human B7-H3 (ECD) Fc
T1 construct: Sourced antigen; construct not described; also called Human B7-H3
T1 sequence (looked up): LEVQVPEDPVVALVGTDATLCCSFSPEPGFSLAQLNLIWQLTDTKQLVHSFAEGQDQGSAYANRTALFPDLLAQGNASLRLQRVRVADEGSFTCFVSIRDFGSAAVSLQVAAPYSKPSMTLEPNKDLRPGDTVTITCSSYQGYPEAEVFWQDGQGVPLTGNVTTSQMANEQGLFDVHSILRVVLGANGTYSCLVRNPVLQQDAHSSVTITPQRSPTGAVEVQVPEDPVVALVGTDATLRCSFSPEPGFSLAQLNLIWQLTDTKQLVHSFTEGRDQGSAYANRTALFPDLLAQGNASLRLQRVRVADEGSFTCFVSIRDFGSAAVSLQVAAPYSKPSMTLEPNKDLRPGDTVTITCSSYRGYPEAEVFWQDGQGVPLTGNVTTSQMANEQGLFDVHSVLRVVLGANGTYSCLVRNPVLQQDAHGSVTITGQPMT

[2] = target: T2, huHHLA2 (human, UniProt Q9UM44 23-344); experiment: ELISA, absorbance 450 nm, antigen human HHLA2 GST
T2 construct: Sourced antigen; construct not described; also called Human HHLA2
T2 sequence (looked up): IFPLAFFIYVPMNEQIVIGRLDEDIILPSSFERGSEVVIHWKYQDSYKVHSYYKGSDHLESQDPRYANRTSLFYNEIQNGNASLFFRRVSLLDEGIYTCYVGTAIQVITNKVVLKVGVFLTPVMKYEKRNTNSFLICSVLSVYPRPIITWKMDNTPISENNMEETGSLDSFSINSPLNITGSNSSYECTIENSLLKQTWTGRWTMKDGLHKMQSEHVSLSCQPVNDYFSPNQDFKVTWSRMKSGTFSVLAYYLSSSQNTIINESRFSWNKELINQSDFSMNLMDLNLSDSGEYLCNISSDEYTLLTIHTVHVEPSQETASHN

[3] = target: T3, huB7-H1 (human, UniProt Q9NZQ7 19-238); experiment: ELISA, absorbance 450 nm, antigen human B7-H1(ECD) F10H
T3 construct: Sourced antigen; construct not described; also called Human B7-H1

[4] = target: T4, huBTN1A1 (human, UniProt Q13410 27-242, limits assumed); experiment: ELISA, absorbance 450 nm, antigen human BTN1A1 GST
T4 construct: Sourced antigen; construct not described; also called Human BTN1A1
T4 sequence (looked up): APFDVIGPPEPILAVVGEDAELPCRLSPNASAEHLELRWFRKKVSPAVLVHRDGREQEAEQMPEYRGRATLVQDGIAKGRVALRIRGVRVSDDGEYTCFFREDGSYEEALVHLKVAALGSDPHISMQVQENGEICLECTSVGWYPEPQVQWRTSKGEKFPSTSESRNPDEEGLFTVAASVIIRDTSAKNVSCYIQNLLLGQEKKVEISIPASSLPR

[5] = target: T5, Murine B7-H4-Fc (Mouse B7H4 ECD, Fc_6His) (mouse, UniProt Q7TSP5 25-257); experiment: HTRF binding, murine IgG1
T5 construct: extracellular domain; also called mouse B7-H4-Fc; FcHis6 tagged murine B7-H4
T5 sequence (Q7TSP5 whole entry, looked up): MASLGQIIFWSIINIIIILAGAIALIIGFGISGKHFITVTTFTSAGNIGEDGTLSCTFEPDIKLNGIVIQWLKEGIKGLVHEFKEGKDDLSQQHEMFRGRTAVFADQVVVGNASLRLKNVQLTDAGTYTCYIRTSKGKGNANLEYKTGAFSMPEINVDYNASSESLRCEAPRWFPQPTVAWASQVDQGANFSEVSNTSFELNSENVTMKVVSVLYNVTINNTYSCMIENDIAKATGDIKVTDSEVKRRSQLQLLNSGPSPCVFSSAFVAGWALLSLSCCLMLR

[6] = target: T6, huB7-H2 (human, UniProt O75144 19-258); experiment: ELISA, absorbance 450 nm, antigen human B7-H2 (ECD) F10H
T6 construct: Sourced antigen; construct not described; also called Human B7-H2
T6 sequence (looked up): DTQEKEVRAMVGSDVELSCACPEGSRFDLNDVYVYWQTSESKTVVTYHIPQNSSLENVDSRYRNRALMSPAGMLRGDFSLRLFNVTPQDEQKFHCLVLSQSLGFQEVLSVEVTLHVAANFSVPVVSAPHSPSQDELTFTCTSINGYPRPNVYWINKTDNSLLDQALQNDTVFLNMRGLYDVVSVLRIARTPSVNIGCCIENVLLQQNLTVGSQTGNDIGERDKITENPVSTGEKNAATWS

[7] = target: T7, huBTNL3 (human, UniProt Q6UXE8 18-237, limits assumed); experiment: ELISA
T7 construct: Sourced antigen; construct not described; also called Human BTNL3
T7 sequence (looked up): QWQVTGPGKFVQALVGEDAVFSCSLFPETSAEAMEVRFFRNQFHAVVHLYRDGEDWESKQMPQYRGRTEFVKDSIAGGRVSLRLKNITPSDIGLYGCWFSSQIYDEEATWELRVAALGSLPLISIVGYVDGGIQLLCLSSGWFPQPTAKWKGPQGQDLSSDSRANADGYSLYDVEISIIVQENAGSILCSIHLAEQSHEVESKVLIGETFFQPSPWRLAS

[8] = target: T8, huBTN2A1 (human, UniProt Q7KYR7 29-248, limits assumed); experiment: ELISA
T8 construct: Sourced antigen; construct not described; also called Human BTN2A1
T8 sequence (looked up): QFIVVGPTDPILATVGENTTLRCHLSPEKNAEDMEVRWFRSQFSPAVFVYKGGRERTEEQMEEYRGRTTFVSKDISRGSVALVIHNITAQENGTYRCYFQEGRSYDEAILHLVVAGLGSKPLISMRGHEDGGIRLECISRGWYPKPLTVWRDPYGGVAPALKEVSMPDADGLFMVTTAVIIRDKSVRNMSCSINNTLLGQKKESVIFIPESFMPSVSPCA

[9] = target: T9, huBTN3A2 (human, UniProt P78410 30-248, limits assumed); experiment: ELISA, absorbance 450 nm, antigen human BTN3A2 GST
T9 construct: Sourced antigen; construct not described; also called Human BTN3A2

[10] = target: T10, Human B7-H4-Fc (Human B7H4 ECD, Fc_6His) (human); experiment: HTRF binding, murine IgG1
T10 construct: also called FcHis6 tagged human B7-H4
T10 sequence (Q7Z7D3 whole entry, looked up): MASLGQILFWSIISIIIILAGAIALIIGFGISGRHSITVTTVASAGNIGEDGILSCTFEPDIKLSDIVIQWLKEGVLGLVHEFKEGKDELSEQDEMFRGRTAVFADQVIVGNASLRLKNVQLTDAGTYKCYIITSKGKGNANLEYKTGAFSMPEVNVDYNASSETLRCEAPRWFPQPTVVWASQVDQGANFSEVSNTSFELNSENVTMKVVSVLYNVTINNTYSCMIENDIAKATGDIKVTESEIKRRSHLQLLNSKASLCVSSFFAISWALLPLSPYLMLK

[11] = target: T11, Cyno B7-H4-Fc (Cyno B7H4 ECD, FcTM_6His) (cynomolgus monkey); experiment: HTRF binding, murine IgG1
T11 construct: extracellular domain; also called cynomolgus B7-H4-Fc

[12] = target: T12, human B7-H4 on cells (human, UniProt Q7Z7D3 25-282); experiment: cell-based or functional assay
T12 sequence: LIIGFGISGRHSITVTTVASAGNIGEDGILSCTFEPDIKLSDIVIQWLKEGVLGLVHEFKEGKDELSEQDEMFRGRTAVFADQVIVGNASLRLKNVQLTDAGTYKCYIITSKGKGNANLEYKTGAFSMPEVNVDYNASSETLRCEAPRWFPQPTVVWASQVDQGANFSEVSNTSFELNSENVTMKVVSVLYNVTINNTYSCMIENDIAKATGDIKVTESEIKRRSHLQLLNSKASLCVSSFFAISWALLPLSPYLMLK

[13] = target: T13, Human B7H4 ECD (SV), splice variant, 10His_FLAG (human); experiment: Octet BLI, hIgG1-TM on Protein G (n = 4-7)
T13 construct: also called B7-H4-SV

[14] = target: T14, Murine B7-H4 ECD-Flag-His10 (monomeric) (mouse, UniProt Q7TSP5 25-257); experiment: Octet BLI, hIgG1-TM on Protein G (n = 4-7)
T14 construct: extracellular domain; also called FlagHis10 murine B7-H4
T14 sequence (looked up): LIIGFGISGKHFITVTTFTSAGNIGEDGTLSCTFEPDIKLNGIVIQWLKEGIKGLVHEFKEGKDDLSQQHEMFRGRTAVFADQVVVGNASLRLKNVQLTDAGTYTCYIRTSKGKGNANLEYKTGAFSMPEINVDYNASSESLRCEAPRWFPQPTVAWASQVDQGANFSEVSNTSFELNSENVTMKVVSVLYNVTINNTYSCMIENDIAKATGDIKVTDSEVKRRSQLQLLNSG

[15] = target: T15, Human B7-H4 ECD-Flag-His10 (monomeric) (human, UniProt Q7Z7D3 25-259); experiment: Octet BLI, hIgG1-TM on Protein G (n = 4-7)
T15 construct: Minimally biotinylated for KinExA; also called hB7H4-ECD-Flag-His10; B7-H4-FLAG
T15 sequence: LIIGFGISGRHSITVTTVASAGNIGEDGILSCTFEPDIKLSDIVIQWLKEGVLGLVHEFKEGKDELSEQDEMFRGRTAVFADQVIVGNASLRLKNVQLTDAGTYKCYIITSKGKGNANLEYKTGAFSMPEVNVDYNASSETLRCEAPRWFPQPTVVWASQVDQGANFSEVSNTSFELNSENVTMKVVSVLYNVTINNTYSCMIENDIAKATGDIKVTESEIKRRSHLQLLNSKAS

[16] = target: T9, huBTN3A2; experiment: ELISA
[17] = target: T6, huB7-H2; experiment: ELISA
[18] = target: T3, huB7-H1; experiment: ELISA
[19] = target: T2, huHHLA2; experiment: ELISA
[20] = target: T4, huBTN1A1; experiment: ELISA
[21] = target: T1, huB7-H3; experiment: ELISA
[22] = target: T15, Human B7-H4 ECD-Flag-His10 (monomeric); experiment: Octet; summary table, rounded from Table 9 (hIgG1-TM)
[23] = target: T13, Human B7H4 ECD (SV), splice variant, …; experiment: Octet; summary table, repeats Table 9 (hIgG1-TM)
[24] = target: T14, Murine B7-H4 ECD-Flag-His10 (monomeric); experiment: Octet; summary table, repeats Table 9 (hIgG1-TM)

T9 sequence (P78410 30-248 limits assumed): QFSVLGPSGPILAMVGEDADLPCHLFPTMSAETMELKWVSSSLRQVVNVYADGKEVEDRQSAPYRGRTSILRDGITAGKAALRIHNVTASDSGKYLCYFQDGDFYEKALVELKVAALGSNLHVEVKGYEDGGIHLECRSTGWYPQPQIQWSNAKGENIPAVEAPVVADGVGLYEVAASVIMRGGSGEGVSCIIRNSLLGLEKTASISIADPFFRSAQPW
T3 sequence (Q9NZQ7 19-238 limits assumed): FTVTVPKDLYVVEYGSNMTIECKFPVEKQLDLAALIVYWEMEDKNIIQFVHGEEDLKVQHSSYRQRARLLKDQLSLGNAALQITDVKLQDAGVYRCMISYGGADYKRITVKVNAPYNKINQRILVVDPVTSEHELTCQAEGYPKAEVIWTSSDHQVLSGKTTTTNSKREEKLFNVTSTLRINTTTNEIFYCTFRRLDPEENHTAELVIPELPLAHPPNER

B1: ZY0EP0-C07 murine IgG1 (antibody, V domains shown)
VH: QVQLVESGGVLVKPGGSLRLSCAASGFTLSDYYMSWIRQAPGMGLEWVSYISSSGSTIYYTDSVKGRFTISRDSAKNSLYLQMNSLRAEDTAVYYCARDGVGFDYWGQGTLVTVSS
VL: EIVLTQSPGTLSLFPGERATLSCRASQSVSSSYLAWYQQKPGQSPRLLIYAASSRATGIPDRFSGSGSGTDFTLTISRLEPEDFAVYYCQQYGSSPLYTFGQGTKLEIK
notes: also called ZY0EPO-C07
binding result [1]: no binding
binding result [2]: no binding (tested: about 10 µg/ml (antigen))
binding result [3]: no binding (tested: 10 µg/ml (antigen))
binding result [4]: no binding (tested: 10 µg/ml (antigen))
EC50 [5]: 0.49 nM
Max [5]: 1910
binding result [6]: no binding (tested: 10 µg/ml (antigen))
binding result [7]: no binding
binding result [8]: no binding
binding result [9]: no binding (tested: about 10 µg/ml (antigen))
EC50 [10]: 0.95 nM
Max [10]: 1740
EC50 [11]: 1.28 nM
Max [11]: 1250

B2: ZY0EO5-E07 human IgG1-TM (antibody, V domains shown)
VH: QVQLQESGPGLVKPSQTLSLTCTVSGGSISSGGYYWSWIRQHPGKGLEWIGNIYYSGSTYYNPSLKSRVTISVDTSKNQFSLKLSSVTAADTAVYYCAREKALASVIPSGYENYYVVDVWGQGTTVTVSS
VL: DIQLTQSPSFLSASVGGRVTITCWASQGIAGYLAWYQQKPGKAPKLLIYAASTLQSGVPSRFSGSGSGTEFTLTISSLQPEDFATYYCQHLNSYPLTFGGGTKVEIK
notes: also called ZY0E05-E07; E05-E07
ZAP % Viability, OVCAR4 [12]: 58%
ZAP % Viability, SKBR3 [12]: 79%
Kd [13]: 264 nM
koff [13]: 0.000499 s⁻¹
kon [13]: 1890 M⁻¹ s⁻¹
Kd [14]: 30 nM
koff [14]: 0.000361 s⁻¹
kon [14]: 12100 M⁻¹ s⁻¹
Kd [15]: 19.8 nM
koff [15]: 0.000338 s⁻¹
kon [15]: 17100 M⁻¹ s⁻¹
binding result [7]: no binding
binding result [16]: no binding
binding result [17]: no binding
binding result [18]: no binding
binding result [19]: no binding
binding result [8]: no binding
binding result [20]: no binding
binding result [21]: no binding
Kd [22]: 20 nM
Kd [23]: 264 nM
Kd [24]: 30 nM
